Patent US20050175581

Experiments:
substrate B = target: T1, substrate B
T1 chain: KKWLGRVPGGPV

substrate A = target: T2, substrate A
T2 chain: LLWLGRVVGGPV

B1: Variant 1 (protein)
chain: IVGGYNCEENSVPYQVSLNSGYHFCGGSLINEQWVVSAGHCYDAVGRDKSRIQVRLGEHNIEVLEGNEQFINAAKIIRHPQYDRKTLNNDIMLIKLSSRAVINARVSTISLPTAPPATGTKCLISGWGNTITNSTASSGADYPDELQCLDAPVLSQAKCEASYPGKITSNMFCVGFLEGGKDSCQGDSGGPVVCNGQLQGVVSWGDGCAQKNKPGVYTKVYNYVKWIKNTIAANS
Substrate B
  rate constants of the proteolytic digestion (proportional to kcat/KM), relative to human trypsin I: the specific activity of variants 1 and 2 is shifted (SEQ ID NOs: 2 and 3, respectively) towards substrate B

B2: Variant 3 (protein)
chain: IVGGYNCEENSVPYQVSLNSGYHFCGGSLINEQWVVSAGHCYAATNGDKSRIQVRLGEHNIEVLEGNEQFINAAKIIRHPQYDRKTLNNDIMLIKLSSRAVINARVSTISLPTAPPATGTKCLISGWGNRKDFWTASSGADYPDELQCLDAPVLSQAKCEASYPGKITSNMFCVGFLEGGKDSCQGDSGGPVVCNGQLQGVVSWGDGCAQKNKPGVYTKVYNYVKWIKNTIAANS
Substrate A
  rate constants of the proteolytic digestion (proportional to kcat/KM), relative to human trypsin I: serves as a negative control with similar activities as the human trypsin I
Substrate B
  rate constants of the proteolytic digestion (proportional to kcat/KM), relative to human trypsin I: serves as a negative control with similar activities as the human trypsin I

B3: Variant 2 (protein)
chain: IVGGYNCEENSVPYQVSLNSGYHFCGGSLINEQWVVSAGHCYNGRDLEKSRIQVRLGEHNIEVLEGNEQFINAAKIIRHPQYDRKTLNNDIMLIKLSSRAVINARVSTISLPTAPPATGTKCLISGWGNVRGTWTASSGADYPDELQCLDAPVLSQAKCEASYPGKITSNMFCVGFLEGGKDSCQGDSGGPVVCNGQLQGVVSWGDGCAQKNKPGVYTKVYNYVKWIKNTIAANS
Substrate B
  rate constants of the proteolytic digestion (proportional to kcat/KM), relative to human trypsin I: the specific activity of variants 1 and 2 is shifted (SEQ ID NOs: 2 and 3, respectively) towards substrate B
